The values that follow come from paper PMC11633749, “Identification of the Wnt signal peptide that directs secretion on extracellular vesicles” (Science Advances, 2024).

Experiment [1] deals with T1, COPB2_(1–304), N-terminal WD repeat of COPB2 (S. cerevisiae, UniProt P41811 1-304).
T1 construct: COPB2 (coatomer beta'), residues 1-304, N-terminal WD repeat domain; residues are counted in 'Saccharomyces cerevisiae COPB2 numbering'; PDB 2YNN (COPB2 1-304) served as search model; codon-optimised synthetic gene; also called WD-repeat domain of COPB2; source: E. coli BL21(DE3), purified (Ni-NTA, tag cleavage, ion exchange, SEC); not shown: 6xHis-Sumo3, N-terminal, cleaved
T1 sequence (looked up): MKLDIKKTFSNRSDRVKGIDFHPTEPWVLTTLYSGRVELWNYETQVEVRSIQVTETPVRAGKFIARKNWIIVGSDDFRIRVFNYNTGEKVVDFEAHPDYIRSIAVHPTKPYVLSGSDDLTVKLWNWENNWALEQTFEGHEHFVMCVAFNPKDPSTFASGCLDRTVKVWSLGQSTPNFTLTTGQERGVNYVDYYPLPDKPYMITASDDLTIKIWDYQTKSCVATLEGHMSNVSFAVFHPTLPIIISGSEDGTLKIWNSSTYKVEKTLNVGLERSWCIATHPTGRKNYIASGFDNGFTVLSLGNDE
As to the kind of experiment: ITC; 450 μM of each peptide titrated into 20 μM COPB2 1-304; 25°C; 150 mM NaCl, 0.5 mM TCEP, 25 mM Hepes pH 7.5; one-site model. The note with it: both partners purified.

In experiment [2] the target is T2, COPB2_(1–304), N-terminal WD repeat of COPB2 (S. cerevisiae, UniProt P41811 1-304).
T2 chain: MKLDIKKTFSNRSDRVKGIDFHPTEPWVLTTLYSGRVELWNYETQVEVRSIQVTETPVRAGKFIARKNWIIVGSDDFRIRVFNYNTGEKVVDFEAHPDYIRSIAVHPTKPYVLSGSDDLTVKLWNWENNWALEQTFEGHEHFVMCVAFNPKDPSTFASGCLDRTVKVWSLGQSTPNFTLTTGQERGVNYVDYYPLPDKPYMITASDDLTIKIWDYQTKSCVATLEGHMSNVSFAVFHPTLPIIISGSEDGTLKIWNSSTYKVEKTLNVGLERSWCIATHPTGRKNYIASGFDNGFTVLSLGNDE
In words: ITC. For orientation: Isothermal titration calorimetry measures the heat released or taken up as one component is titrated into another.

B1: exosome-binding peptide (EBP), 18-amino acid polypeptide of Wnt7a (240-257) (peptide)
peptide: PVRASRNKRPTFLKIKKP
notes: also called 18–amino acid EBP polypeptide
Regarding B1, the Kd (in general, the concentration at which binding is half-saturated) in experiment [1] came to 11.6 µM.

B2: EBP peptide K256A (peptide)
chain: PVRASRNKRPTFLKIKAP
As to B2, the Kd in experiment [2] was determined as 6 µM.

B3: Wnt_(252–257) peptide (LKIKKP) (peptide)
peptide: LKIKKP
notes: also called C-terminal half of the polypeptide
Take B3: binding in experiment [1] was put at a Kd of 37.2 µM.

B4: EBP peptide K253A (peptide)
chain: PVRASRNKRPTFLAIKKP
For B4, the Kd in experiment [2] amounted to 47.2 µM.
